From patent US20130149248A1 come the findings set out here.

The target of assay [1] is αvβ6 on VB6 cells (human) (UniProt P06756). Kind of assay: cell-based or functional assay.
The target in assay [2] is T1, αvβ6 on 3T3β6.19 cells (mouse; human), P43406.
T1 chain 1: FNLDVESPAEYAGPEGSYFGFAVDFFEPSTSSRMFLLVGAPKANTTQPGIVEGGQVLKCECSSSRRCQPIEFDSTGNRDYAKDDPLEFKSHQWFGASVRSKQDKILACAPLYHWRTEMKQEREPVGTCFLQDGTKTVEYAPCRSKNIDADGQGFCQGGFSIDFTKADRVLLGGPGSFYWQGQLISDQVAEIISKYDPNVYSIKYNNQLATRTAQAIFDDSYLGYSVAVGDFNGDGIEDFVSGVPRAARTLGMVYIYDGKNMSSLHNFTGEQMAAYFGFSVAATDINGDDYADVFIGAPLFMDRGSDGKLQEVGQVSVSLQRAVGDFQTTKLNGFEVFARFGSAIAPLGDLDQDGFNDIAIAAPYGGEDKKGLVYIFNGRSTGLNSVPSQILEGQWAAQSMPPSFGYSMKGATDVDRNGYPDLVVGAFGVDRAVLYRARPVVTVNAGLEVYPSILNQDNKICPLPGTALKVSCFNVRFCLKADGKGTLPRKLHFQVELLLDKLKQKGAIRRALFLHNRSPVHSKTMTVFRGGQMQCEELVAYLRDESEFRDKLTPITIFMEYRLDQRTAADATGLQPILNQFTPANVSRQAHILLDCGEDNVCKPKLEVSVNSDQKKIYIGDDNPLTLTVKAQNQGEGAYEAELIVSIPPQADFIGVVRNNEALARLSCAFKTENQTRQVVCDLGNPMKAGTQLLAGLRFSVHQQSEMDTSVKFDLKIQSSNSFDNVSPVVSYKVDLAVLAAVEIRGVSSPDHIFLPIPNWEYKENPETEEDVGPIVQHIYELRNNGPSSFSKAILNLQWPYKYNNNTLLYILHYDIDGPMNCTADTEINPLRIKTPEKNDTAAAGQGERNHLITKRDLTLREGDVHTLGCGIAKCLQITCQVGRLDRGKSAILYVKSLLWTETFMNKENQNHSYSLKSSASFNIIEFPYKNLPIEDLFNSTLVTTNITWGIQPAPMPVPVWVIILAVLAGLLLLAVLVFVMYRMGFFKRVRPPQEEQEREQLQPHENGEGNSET
T1 chain 2: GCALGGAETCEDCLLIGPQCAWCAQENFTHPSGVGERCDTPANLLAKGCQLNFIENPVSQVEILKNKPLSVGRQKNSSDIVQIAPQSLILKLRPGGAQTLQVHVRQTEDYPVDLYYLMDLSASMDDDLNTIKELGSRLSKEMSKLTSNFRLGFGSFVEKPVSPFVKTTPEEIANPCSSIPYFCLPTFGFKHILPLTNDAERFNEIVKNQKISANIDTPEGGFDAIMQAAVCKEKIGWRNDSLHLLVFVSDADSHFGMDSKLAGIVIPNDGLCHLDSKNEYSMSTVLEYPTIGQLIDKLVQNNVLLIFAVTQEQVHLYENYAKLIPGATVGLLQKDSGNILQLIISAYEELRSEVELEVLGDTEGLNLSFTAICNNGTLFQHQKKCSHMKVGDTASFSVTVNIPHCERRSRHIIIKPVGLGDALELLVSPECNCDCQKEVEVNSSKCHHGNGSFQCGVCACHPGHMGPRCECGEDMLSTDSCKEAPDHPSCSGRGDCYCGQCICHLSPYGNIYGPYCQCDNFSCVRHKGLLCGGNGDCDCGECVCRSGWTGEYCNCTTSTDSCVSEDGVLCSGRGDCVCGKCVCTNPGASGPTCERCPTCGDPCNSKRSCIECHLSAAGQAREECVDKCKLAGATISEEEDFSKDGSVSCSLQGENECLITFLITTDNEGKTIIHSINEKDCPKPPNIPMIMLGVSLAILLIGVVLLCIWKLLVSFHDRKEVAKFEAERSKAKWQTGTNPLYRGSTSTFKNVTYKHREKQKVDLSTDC
Kind of assay: cell-based or functional assay.

The target of assay [3] is T2, recombinant soluble αvβ6, P06756.
T2 chain 1: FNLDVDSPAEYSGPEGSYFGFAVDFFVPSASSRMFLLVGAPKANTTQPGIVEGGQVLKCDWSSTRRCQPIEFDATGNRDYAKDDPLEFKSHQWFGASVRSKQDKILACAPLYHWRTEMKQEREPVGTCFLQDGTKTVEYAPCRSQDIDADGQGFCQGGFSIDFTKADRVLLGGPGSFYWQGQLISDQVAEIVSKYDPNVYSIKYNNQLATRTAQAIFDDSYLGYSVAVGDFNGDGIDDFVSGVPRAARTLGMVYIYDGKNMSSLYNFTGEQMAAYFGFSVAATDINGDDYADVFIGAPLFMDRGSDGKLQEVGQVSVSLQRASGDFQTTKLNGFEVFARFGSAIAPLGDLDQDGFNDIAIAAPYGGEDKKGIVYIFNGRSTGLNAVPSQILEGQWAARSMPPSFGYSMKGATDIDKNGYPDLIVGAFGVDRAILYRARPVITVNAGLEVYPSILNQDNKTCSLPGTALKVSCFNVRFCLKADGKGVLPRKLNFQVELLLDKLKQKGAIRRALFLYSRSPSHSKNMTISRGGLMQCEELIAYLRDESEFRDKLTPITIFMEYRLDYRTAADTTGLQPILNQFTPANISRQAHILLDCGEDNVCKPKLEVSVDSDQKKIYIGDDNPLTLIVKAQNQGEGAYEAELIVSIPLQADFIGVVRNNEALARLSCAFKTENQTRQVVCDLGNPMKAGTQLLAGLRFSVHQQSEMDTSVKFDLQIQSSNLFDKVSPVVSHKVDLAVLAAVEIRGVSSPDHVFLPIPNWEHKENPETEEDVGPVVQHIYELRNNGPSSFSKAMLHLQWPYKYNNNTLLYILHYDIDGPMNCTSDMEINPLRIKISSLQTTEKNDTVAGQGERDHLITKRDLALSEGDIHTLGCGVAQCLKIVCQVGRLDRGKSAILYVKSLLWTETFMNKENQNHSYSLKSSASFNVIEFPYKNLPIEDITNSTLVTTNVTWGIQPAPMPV
T2 chain 2: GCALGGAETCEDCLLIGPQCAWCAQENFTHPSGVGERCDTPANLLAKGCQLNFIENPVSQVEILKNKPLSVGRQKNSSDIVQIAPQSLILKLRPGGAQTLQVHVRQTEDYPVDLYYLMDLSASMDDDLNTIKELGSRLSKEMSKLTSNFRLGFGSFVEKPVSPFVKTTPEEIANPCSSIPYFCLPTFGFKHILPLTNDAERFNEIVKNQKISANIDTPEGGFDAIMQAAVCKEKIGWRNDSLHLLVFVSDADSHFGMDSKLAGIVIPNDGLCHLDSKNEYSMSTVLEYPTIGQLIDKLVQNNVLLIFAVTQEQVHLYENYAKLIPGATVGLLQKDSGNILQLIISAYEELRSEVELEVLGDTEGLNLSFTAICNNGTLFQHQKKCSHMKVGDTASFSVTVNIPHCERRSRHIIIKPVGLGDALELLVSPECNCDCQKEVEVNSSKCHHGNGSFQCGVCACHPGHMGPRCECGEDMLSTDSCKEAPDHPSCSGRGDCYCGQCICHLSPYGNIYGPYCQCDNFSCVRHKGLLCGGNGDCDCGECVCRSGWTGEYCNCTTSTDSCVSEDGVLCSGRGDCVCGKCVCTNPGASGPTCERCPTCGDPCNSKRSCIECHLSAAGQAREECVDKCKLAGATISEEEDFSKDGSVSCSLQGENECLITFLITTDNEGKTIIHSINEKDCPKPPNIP
Nature of the assay: competitive sandwich ELISA; rsαvβ6 captured on anti-αv P2W7; competitor biotinylated fibronectin.

For assay [4] the target is unchanged.
Assay [5] has the same target. Nature of the assay: competitive (Screening) ELISA; rsαvβ6 captured on anti-αv P2W7; competitor biotinylated fibronectin. (ELISA stands for enzyme-linked immunosorbent assay.)
Assay [6] shares this target. Kind of assay: non-competitive binding ELISA; biotinylated peptide on immobilised rsαvβ6.

Read-outs that look alike come from different tables or passages of the source.

Molecule A20FMDV1 (peptide) gave an IC50, inhibition of adhesion of VB6 cells to LAP in assay [1] of 38200 nM.

B1: A20LAP (peptide)
peptide: GFTTGRRGDLATIHGMNRPF
modifications: not checked
As for B1, the adhesion of 3T3β6.19 to LAP in the presence of 20 µM peptide, % of control cell adhesion (% of control cell adhesion) in assay [2] turned out to be 32.

B2: DD3 (peptide)
peptide: TGRRGDLATI
modifications: not checked
On to B2, for which the adhesion of 3T3β6.19 to LAP in the presence of 20 µM peptide, % of control cell adhesion (% of control cell adhesion) in assay [2] amounted to 79. In assay [3], the concentration for half-maximal inhibition (IC50) (commonly the concentration at which inhibition is half-maximal) came out at 22.6 nM.

B3: DD19 (peptide)
peptide: VPNLRGDLQVLA
modifications: not checked
In assay [2], B3 yielded an IC50 of inhibition of αvβ6-dependent binding of cells to LAP of 190000 nM. In assay [4], the IC50 is 85 nM.

B4: DD2 (peptide)
peptide: FTTGRRGDLATI
modifications: not checked
As to B4, the IC50 in assay [3] is 30.9 nM.

B5: DD1 (peptide)
peptide: RRGDLATIH
modifications: not checked
B5: in assay [2], the IC50 of inhibition of αvβ6-dependent binding of 3T3β6.19 to LAP worked out at 216000 nM and the adhesion of 3T3β6.19 to LAP in the presence of 20 µM peptide, % of control cell adhesion (% of control cell adhesion) stood at 57.

B6: P_18INK (peptide)
peptide: SAAARGDLEQLTSLLQNNVN
modifications: not checked
As for B6, the half-inhibitory concentration (IC50) in assay [5] was determined as 23 nM.

B7: B-DBD2 (peptide)
peptide: CYVPNLRGDLQVLAQKVAKC
modifications: not checked
As for B7, the half-maximal effective concentration (EC50) – broadly, the concentration needed to bring the measured effect to its halfway point – in assay [6] amounted to 1.7 nM.
